Test results: patent US20130189280A1

What was measured:
[1] = target: human hemoglobin (Sigma) (human) (UniProt P69905)
[2] = target: complex of recombinant human serum albumin and hemin (rHSA-heme) (human) (UniProt P02768); experiment: ELISA, rHSA-heme against rHSA on immobilized K3 (FIG. 22)
[3] = target: fibrinogen from human plasma (Sigma) (human) (UniProt P02671); experiment: ELISA, fibrinogen titrated on immobilized K3; apparent Kd (FIG. 21)
[4] = target: fibrinogen from human plasma (Sigma) (human) (UniProt P02671); experiment: ELISA, fibrinogen titrated on immobilized K1; apparent Kd (FIG. 21)

What does the source list for “K3 domain (Ala1427-Gly1602) of lysine gingipain Kgp from Porphyromonas gingivalis W83, recombinant, non-tagged (from UniProt Q51817 1427-1602)”?
Kd [1]: 0.154 µM; fold increase of binding affinity against rHSA without heme [2]: 9 fold; Kd [3]: 0.57 µM

Which Kd [1] does the source give for “K1 domain (Gly982-Gly1154) of lysine gingipain Kgp from Porphyromonas gingivalis W83, recombinant (from UniProt Q51817 982-1154)” here?
The Kd was 0.36 µM.

And the Kd [4]?
The Kd was 1.5 µM.
